Laboratory results published in US20240067944A1 (published 2024).
No end group written: not given here.

Assays:
Experiment in all cases: ELISA, biotinylated 12-mer peptide on streptavidin, 2 ug/mL FLAG-tagged VHH, anti-FLAG-HRP
[1] = target: T1, SVAQATSSSGEA (human)
T1 peptide: SVAQATSSSGEA-biotin
Description: (§1) To determine whether the binding epitope of the anti-FX VHH polypeptide designated “cmpd #1” are located inside the activation peptide (AP) of human FX (SEQ ID NO:2), an ELISA assay was setup. 41 unique 12-mer peptide fragments spanning the 52 residues of the activation peptide with one amino acid spacing were immobilized in microtiter plate wells followed by incubation with the VHH polypeptide to be tested, and detection of bound ligand was performed by addition of a secondary HRP-labelled antibody.
(§2) The peptides were C-terminally conjugated to biotin and 50 μL of 1 μg/mL peptide solution was used for immobilization in discrete wells of the microtiter plate which was pre-coated with 1 μg/mL streptavidin. Each well was washed with washing buffer (10 mM Tris, 150 mM NaCl, 2.5 mM CaCl₂), 0.05% Tween 20, pH 8.60) followed by addition of 50 μL of 2 μg/mL FLAG-tagged anti-FX VHH polypeptide or IgG antibody to be tested. After 1 hour non-bound VHH polypeptide was washed off using washing buffer.
(§3) Bound anti-FX activation peptide ligand was detected by first binding a HRP-labelled secondary antibody (for FLAG-tagged VHH polypeptide: Anti-FLAG mAb M2-Peroxidase (HRP) (Sigma Aldrich, US) for 1 hour, and then adding 100 μL TMB-1 ELISA substrate (Kem-En-Tec Diagnostics, Denmark).

[2] = target: T2, VAQATSSSGEAP (human)
T2 peptide: VAQATSSSGEAP-biotin
Description: as §1, §2, §3

[3] = target: T3, SSGEAPDSITWK (human)
T3 peptide: SSGEAPDSITWK-biotin
Description: as §1, §2, §3

[4] = target: T4, SGEAPDSITWKP (human)
T4 peptide: SGEAPDSITWKP-biotin
Description: as §1, §2, §3

[5] = target: T5, DSITWKPYDAAD (human)
T5 peptide: DSITWKPYDAAD-biotin
Description: as §1, §2, §3

[6] = target: T6, SITWKPYDAADL (human)
T6 peptide: SITWKPYDAADL-biotin
Description: as §1, §2, §3

[7] = target: T7, ITWKPYDAADLD (human)
T7 peptide: ITWKPYDAADLD-biotin
Description: as §1, §2, §3

[8] = target: T8, KPYDAADLDPTE (human)
T8 peptide: KPYDAADLDPTE-biotin
Description: as §1, §2, §3

[9] = target: T9, PYDAADLDPTEN (human)
T9 peptide: PYDAADLDPTEN-biotin
Description: as §1, §2, §3

[10] = target: T10, AADLDPTENPFD (human)
T10 peptide: AADLDPTENPFD-biotin
Description: as §1, §2, §3

[11] = target: T11, DLDPTENPFDLL (human)
T11 peptide: DLDPTENPFDLL-biotin
Description: as §1, §2, §3

[12] = target: T12, DPTENPFDLLDF (human)
T12 peptide: DPTENPFDLLDF-biotin
Description: as §1, §2, §3

[13] = target: T13, PTENPFDLLDFN (human)
T13 peptide: PTENPFDLLDFN-biotin
Description: as §1, §2, §3

[14] = target: T14, ENPFDLLDFNQT (human)
T14 peptide: ENPFDLLDFNQT-biotin
Description: as §1, §2, §3

[15] = target: T15, DLLDFNQTQPER (human)
T15 peptide: DLLDFNQTQPER-biotin
Description: as §1, §2, §3

[16] = target: T16, DFNQTQPERGDN (human)
T16 peptide: DFNQTQPERGDN-biotin
Description: as §1, §2, §3

[17] = target: T17, FNQTQPERGDNN (human)
T17 peptide: FNQTQPERGDNN-biotin
Description: as §1, §2, §3

[18] = target: T18, TQPERGDNNLTR (human)
T18 peptide: TQPERGDNNLTR-biotin
Description: as §1, §2, §3

ELISA signal normalized relative to the background signal [1]: 0.96 relative to background
ELISA signal normalized relative to the background signal [2]: 1.02 relative to background
ELISA signal normalized relative to the background signal [3]: 0.88 relative to background
ELISA signal normalized relative to the background signal [4]: 0.88 relative to background
ELISA signal normalized relative to the background signal [5]: 1.08 relative to background
ELISA signal normalized relative to the background signal [6]: 1.08 relative to background
ELISA signal normalized relative to the background signal [7]: 1.1 relative to background
ELISA signal normalized relative to the background signal [8]: 0.8 relative to background
ELISA signal normalized relative to the background signal [9]: 0.83 relative to background
ELISA signal normalized relative to the background signal [10]: 0.88 relative to background
ELISA signal normalized relative to the background signal [11]: 1 relative to background
ELISA signal normalized relative to the background signal [12]: 4.16 relative to background
ELISA signal normalized relative to the background signal [13]: 4.58 relative to background
ELISA signal normalized relative to the background signal [14]: 4 relative to background
ELISA signal normalized relative to the background signal [15]: 3.08 relative to background
ELISA signal normalized relative to the background signal [16]: 0.94 relative to background
ELISA signal normalized relative to the background signal [17]: 1 relative to background
ELISA signal normalized relative to the background signal [18]: 1.05 relative to background
B1: Cmpd #1 (monovalent anti-FX VHH polypeptide, VHH-1.1) (VHH)
VHH: EVQLVESGGGLVQPGGSLRLSCAASGSIGAFDAMGWYRQAPGKQRELVAGIMVSRGNTNYTDSVKGRFTISRDNAKNTVYLQMNSLKPEDTAVYYCKAVKRPGPGYLEVWGQGTLVTVSS
notes: No protractor
